Test results reported in US8227212B2, “Cell that expresses a sulfatase and a formylglycine generating enzyme” (Shire Human Genetic Therapies, Inc., priority 2003, dated 2012).

Substrate: CSCC[C@H](NC(C)=O)C(=O)N[C@H](C(=O)N[C@@H](CC(=O)O)C(=O)N[C@@H](Cc1ccccc1)C(=O)N[C@@H](Cc1ccc(O)cc1)C(=O)N[C@H](C(=O)N1CCC[C@H]1C(=O)N[C@H](C(=O)N[C@@H](CO)C(=O)N[C@@H](CC(C)C)C(=O)N[C@@H](CS)C(=O)N[C@H](C(=O)N1CCC[C@H]1C(=O)N[C@@H](CO)C(=O)N[C@@H](CCCNC(=N)N)C(=O)N[C@@H](C)C(=O)N[C@@H](C)C(=O)N[C@@H](CC(C)C)C(=O)N[C@@H](CC(C)C)C(=O)N[C@H](C(=O)NCC(=O)N[C@@H](CCCNC(=N)N)C(=O)N[C@@H](CO)C(N)=O)[C@@H](C)O)[C@@H](C)O)C(C)C)C(C)C)[C@@H](C)O
Experiment: In vitro assay for FGE with peptide P23 as substrate (MALDI-TOF)
Format: biochemical, bovine
Conditions: other: standard conditions; pH 9.0; 37.0 °C
Procedure: For monitoring the activity of FGE, the N-acetylated and C-amidated 23mer peptide P23 ([…]) (SEQ ID NO:33) was used as substrate. The conversion of the Cysteine residue in position 11 to FGly was monitored by MALDI-TOF mass spectrometry. A 6 μM stock solution of P23 in 30% acetonitrile and 0.1% trifluoroacetic acid (TFA) was prepared. Under standard conditions 6 pmol of P23 were incubated at 37° C. with up to 10 μl enzyme in a final volume of 30 μl 50 mM Tris/HCl, pH 9.0, containing 67 mM NaCl, 15 μM CaCl2, 2 mM DTT, and 0.33 mg/ml bovine serum albumin. To stop the enzyme reaction 1.5 μl 10% TFA were added. […] Activity (pmol product/h) was calculated on the basis of the peak height of the product divided by the sum of the peak heights of P23 and the product.
We had developed an assay for determining FGE activity in microsome extracts using in vitro synthesized [^35S] […] The quantitation of the product included tryptic digestion, separation of the peptides by RP-HPLC and identification and quantitation of the [^35S]-labeled FGly containing tryptic peptide by a combination of chemical derivatization to hydrazones, RP-HPLC separation and liquid scintillation counting (Fey et al., J. Biol. Chem., 2001, 276:47021-47028). […] The cysteine and the FGly containing forms of P23 could be identified and quantified by matrix-assisted laser desorption/ionisation time of flight (MALDI-TOF) mass spectrometry. […]

B1: FGE (Bos taurus) (protein)
chain: GEEAGPEAGAPSLVGSCGCGNPQRPGAQGSSAAAHRYSREANAPGSVPGGRPSPPTKMVPIPAGVFTMGTDDPQIKQDGEAPARRVAIDAFYMDAYEVSNAEFEKFVNSTGYLTEAEKFGDSFVFEGMLSEQVKSDIQQAVAAAPWWLPVKGANWRHPEGPDSTVLHRPDHPVLHVSWNDAVAYCTWAGKRLPTEAEWEYSCRGGLQNRLFPWGNKLQPKGQHYANIWQGEFPVTNTGEDGFRGTAPVDAFPPNGYGLYNIVGNAWEWTSDWWTVHHSAEETINPKGPPSGKDRVKKGGSYMCHKSYCYRYRCAARSQNTPDSSASNLGFRCAADHLPTTG
notes: the soluble fraction (reticuloplasm) of bovine testis microsomes served as the starting material; from tissue; host or cells: bovine testis rough microsomes, reticuloplasm
For B1, the Km was 0.013 µM.
